According to article PMC2853374 (2010):

How the values were obtained:
[1] = target: OmpR~P (Escherichia coli) (UniProt P0AA16); assay: FRET; settings: cited from earlier work
OmpR (Escherichia coli) = OmpR (Escherichia coli) (UniProt P0AA16); assay: FRET; settings: cited from earlier work
OmpR = target: T1, OmpR (Escherichia coli, UniProt P0AA16); assay: fluorescence anisotropy
T1 chain: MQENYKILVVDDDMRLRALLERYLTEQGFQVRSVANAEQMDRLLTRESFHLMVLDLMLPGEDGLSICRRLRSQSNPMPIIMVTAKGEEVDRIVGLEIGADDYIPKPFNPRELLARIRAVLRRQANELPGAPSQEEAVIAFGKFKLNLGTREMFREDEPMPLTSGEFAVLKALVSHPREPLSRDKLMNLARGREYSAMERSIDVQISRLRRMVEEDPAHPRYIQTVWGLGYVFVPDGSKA

## EnvZ-GFP (from UniProt P0AEJ4)
[1]
  Kd: 1600 nM
OmpR (Escherichia coli)
  Kd: 500 nM

B1: EnvZc cytoplasmic domain (protein)
chain: FNHMAAGVKQLADDRTLLMAGVSHDLRTPLTRIRLATEMMSEQDGYLAESINKDIEECNAIIEQFIDYLRTGQ
OmpR
  Kd: 425 nM

B2: EnvZc cytoplasmic domain (protein)
chain: FNHMAAGVKQLADDRTLLMAGVSHDLRTPLTRIRLATEMMSEQDGYLAESINKDIEECNAIIEQFIDYLRTGQ
modifications: ompC DNA (C1-C2-C3)
OmpR
  Kd: 385 nM
